# Experimental data taken from patent US20200002699 (published 2020).
# Changes are numbered by the printed parent chain.
# B1: Clone 1 (ssRNA)
# RNA: GGAGAGAGAAGGAGAACGAGCUGUUACUCACAAAAUAGCGAAGACUAAGUGACACAAAGCCCGG
# B2: Clone 5 (ssRNA)
# RNA: GGAGAGGUAGGAGAACGAGCCUACCGUAAGAGAACGAGCAGACUCAAGUGACACAAAGCCCGG
# B3: Clone 7 (ssRNA)
# RNA: GGAGAGGGAAUGAUAACGAGCCCGAAGCUCGGAGAAGCACAGAAGCAAGUGACACAAAGCCCGG
# B4: Clone 4 (ssRNA)
# RNA: GGAGAGGGAAGGAGAACGGCUGCGGAUAACAAGAUAGCAAAGACUAAGUGACACAAAGCCCGG
# B5: Clone 9 (ssRNA)
# RNA: GGAGAGGGAAAGAGAACGAGCGGGUGUUCACAAGAUAGAGUAGACUAAGUGACACAAAGCCCGG
# B6: Clone 6 (ssRNA)
# RNA: GGAGAGGGAAGGAGAACGAGCCGGGACACUAAGGAACAUAAAAGUUAAGUGACACAAAGCCCGG
# B7: Clone 8 (ssRNA)
# RNA: GGAGAGCGAAGAGAACGAGCGGGAUUGCACAAGAUAGCGUAGACUAAGUGACACAAAGCCCGG
# B8: Clone 3 (ssRNA)
# RNA: GGAGAGGGAAGGAGAACGAACCGGGACUCACAAGAUAGACAAUACUAAGUGACACAAAGCCCGG
# B9: Clone 2 (ssRNA)
# RNA: B8 RNA with G8U, G12U, A20G, G23C, A26C, C27G, U43A
# B10: Clone 10 (ssRNA)
# RNA: GGAGACGGAAGGAUAACGAGCGCUUUGACACAAGAUACAAUAUAGUAAGUGACACCAAGCCCGG
# Assays:
# alpha-thrombin [1] = target: T1, alpha-thrombin (Homo sapiens, UniProt P00734;P00734 P00734:328-363,P00734:364-622); experiment: filter; ±4.6; Fbmax 95.6; same buffer, 22 C
# alpha-thrombin [2] = target: T1, alpha-thrombin; experiment: filter; NB, little or no binding; same buffer, 22 C
# alpha-thrombin [3] = target: T1, alpha-thrombin; experiment: filter; ±0.9; Fbmax 84.5; same buffer, 22 C
# alpha-thrombin [4] = target: T1, alpha-thrombin; experiment: filter; ±0.2; Fbmax 92.3; 20 mM Tris pH 7.5, 150 mM NaCl, 2 mM MgSO4, 50 ug/mL BSA, 22 C
# alpha-thrombin [5] = target: T1, alpha-thrombin; experiment: filter; ±1.9; Fbmax 74.5; same buffer, 22 C
# alpha-thrombin [6] = target: T1, alpha-thrombin; experiment: filter; ±0.4; Fbmax 63.5; same buffer, 22 C
# alpha-thrombin [7] = target: T1, alpha-thrombin; experiment: filter; ±0.3; Fbmax 65.3; same buffer, 22 C
# alpha-thrombin [8] = target: T1, alpha-thrombin; experiment: filter; ±0.3; Fbmax 80.6; same buffer, 22 C
# alpha-thrombin [9] = target: T1, alpha-thrombin; experiment: BLI; ±0.002; kon 91.9e4 M-1 s-1, koff 4.12e-4 s-1; RNA immobilized on streptavidin sensor; 20 mM Tris pH 7.5, 150 mM NaCl, 2 mM MgSO4, 2 mg/mL BSA, 0.1% Tween-20
# alpha-thrombin [10] = target: T1, alpha-thrombin; experiment: filter; truncated form; 2 mM MgSO4 buffer
# alpha-thrombin [11] = target: T1, alpha-thrombin; experiment: filter; ±2.8; Fbmax 52.9; same buffer, 22 C
binder,measurement,setting,value
B1,Kd,alpha-thrombin [1],44.7 nM
B2,binding result,alpha-thrombin [2],no binding
B3,binding result,alpha-thrombin [2],no binding
B4,Kd,alpha-thrombin [3],10 nM
B5,Kd,alpha-thrombin [4],1.4 nM
B6,Kd,alpha-thrombin [5],13.8 nM
B7,Kd,alpha-thrombin [6],1.6 nM
B8,Kd,alpha-thrombin [7],2.4 nM
B9,Kd,alpha-thrombin [8],3.5 nM
GUGUUCACAAGAUAGAGUAGACUAAGUGACAC (ssRNA) [Truncated clone 9],Kd,alpha-thrombin [9],0.448 nM
same,Kd,alpha-thrombin [10],2 nM
B10,Kd,alpha-thrombin [11],36.4 nM
